Data on eight molecules can be found in patent US20040086946A1, “Methods of isolation of active compounds and activated targets” (priority 2002, published 2004).

For one experiment, the system named is scFv-P2Y6. The experiment can be described thus: Activation of scFv-P2Y6 in HEK293 cells, aequorin luminescence. The class given is cell-based, human. Conditions: non-anchored agonists. The text has this:
A fusion protein was constructed between a single chain antibody against fluorescein (Boder et al. (2000) Proc. Natl. Acad. Sci. USA 97:10701-5) (docking domain) and the human P2Y6 receptor (GenBank accession number: NP_004145) (active domain). The target fusion protein, termed scFv-P2Y6, was co-transfected with the calcium-sensitive luminescent protein aequorin into HEK293 cells. After two days, the transfected cells were pre-loaded for two hours with the aequorin substrate coelenterazine (Molecular Probes) and then various amounts of UDP, UTP or ATP were added immediately followed by measurement of luminescence (FIG. 5A). The activation profile of these three agonists on the fusion protein closely mimicked their activation of the unfused P2Y6 receptor (not shown). […] In contrast to ATP alone, an anchored compound, a fluorescein-ATP conjugate (FITC-ATP; Perkin-Elmer), was able to activate the scFv-P2Y6 receptor at low concentrations (FIG. 5B) with a half-maximal stimulation occurring at about 10 nM.

A further experiment has as its system melanocortin receptors. The note with it: cited from earlier work.
A further experiment concerns the target T1, FcR-MC4R (Homo sapiens, UniProt P12314+P32245).
T1 construct: extracellular domain (residues 1-292, with its own signal peptide) of human Fc-gammaR1 = CD64 (NM_000566); expressed in transfected cells; host or cells: HEK293
Briefly: Inhibition by AGRP of FcR-MC4R activation, CRE-luciferase reporter. The format is cell-based. On the procedure:
Activation of FcR-MC4R was assayed 6 hours after compound addition using a co-transfected CRE-luciferase construct (pCRE-Luc; Stratagene) and measuring luminescence after lysis and addition of the luciferase substrate (Tropix Luciferase Assay Kit).
For orientation: In a reporter assay the amount or activity of a reporter protein is the signal.

Experiment [1] deals with FcR-MC4R fusion protein (human). The experiment can be described thus: cell-based or functional assay.
The target is the same in experiment [2]. The experiment can be described thus: cell-based or functional assay. This is another data set of the same source.
The test system of experiment [3] is Alpha1-mc4r, Alpha2-MC4R, OGH-MC4R and HCG-MC4R. Briefly: Glycoprotein hormone subunit-based extracellular 2-hybrid screen, CRE-luciferase reporter in HEK293 cells. The format is cell-based. Conditions: relative to no ligand control; two days after transfection. The protocol: Signal sequences were included at the beginning of each construct.
Two days after transfection, the activity of the target fusion protein was measured by assaying luciferase activity as relative light units (Y axis, FIG. 7) on a luminometer.

No end group written: not given here. Some results are limits rather than exact numbers.

T1 sequence (P12314+P32245 fused): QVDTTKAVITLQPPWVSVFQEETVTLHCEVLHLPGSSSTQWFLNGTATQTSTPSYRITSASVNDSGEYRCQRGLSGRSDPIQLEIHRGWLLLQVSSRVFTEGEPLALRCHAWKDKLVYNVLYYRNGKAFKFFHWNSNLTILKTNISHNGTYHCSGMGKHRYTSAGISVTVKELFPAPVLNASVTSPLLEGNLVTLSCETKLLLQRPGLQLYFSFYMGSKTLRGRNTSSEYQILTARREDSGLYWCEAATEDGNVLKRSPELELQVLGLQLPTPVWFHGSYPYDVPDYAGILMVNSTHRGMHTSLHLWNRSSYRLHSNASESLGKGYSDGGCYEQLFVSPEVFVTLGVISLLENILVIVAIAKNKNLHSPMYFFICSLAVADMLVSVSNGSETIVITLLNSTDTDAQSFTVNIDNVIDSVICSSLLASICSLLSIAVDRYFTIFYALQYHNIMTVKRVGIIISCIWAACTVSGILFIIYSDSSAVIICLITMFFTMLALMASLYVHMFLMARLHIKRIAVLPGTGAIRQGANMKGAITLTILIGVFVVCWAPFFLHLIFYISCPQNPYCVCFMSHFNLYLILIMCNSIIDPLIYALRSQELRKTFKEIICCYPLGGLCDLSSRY
FcR-MC4R fusion protein (human), sequence (P12314 other isoform, or with tags, fused parts or gaps, form in doubt): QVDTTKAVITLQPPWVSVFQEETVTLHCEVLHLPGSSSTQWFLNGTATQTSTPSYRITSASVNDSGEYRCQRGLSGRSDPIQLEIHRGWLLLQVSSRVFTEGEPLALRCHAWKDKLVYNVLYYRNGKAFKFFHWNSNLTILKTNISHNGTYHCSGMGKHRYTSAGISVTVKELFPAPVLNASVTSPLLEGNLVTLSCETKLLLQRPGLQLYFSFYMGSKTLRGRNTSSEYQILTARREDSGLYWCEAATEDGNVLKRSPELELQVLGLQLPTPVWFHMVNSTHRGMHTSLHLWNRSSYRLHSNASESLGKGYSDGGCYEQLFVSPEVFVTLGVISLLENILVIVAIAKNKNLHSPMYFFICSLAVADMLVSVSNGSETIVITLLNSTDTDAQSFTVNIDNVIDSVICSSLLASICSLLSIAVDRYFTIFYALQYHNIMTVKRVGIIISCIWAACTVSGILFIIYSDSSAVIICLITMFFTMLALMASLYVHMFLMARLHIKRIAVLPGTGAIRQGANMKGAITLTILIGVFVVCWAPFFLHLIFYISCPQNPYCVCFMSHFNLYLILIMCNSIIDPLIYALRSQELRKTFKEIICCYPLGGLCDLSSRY
Alpha1-mc4r, Alpha2-MC4R, OGH-MC4R and HCG-MC4R, sequence (P32245 whole entry, the tested form may be a part): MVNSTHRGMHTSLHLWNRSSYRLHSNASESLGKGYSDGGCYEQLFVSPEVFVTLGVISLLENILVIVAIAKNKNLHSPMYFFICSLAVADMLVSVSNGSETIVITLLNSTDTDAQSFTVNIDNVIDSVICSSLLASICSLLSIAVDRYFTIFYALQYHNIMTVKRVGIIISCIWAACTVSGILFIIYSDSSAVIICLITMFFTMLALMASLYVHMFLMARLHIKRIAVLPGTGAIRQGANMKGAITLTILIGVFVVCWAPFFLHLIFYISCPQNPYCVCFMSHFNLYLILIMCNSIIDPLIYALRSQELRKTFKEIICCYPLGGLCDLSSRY

For `Nc1ncnc2c1ncn2[C@@H]1O[C@H](COP(=O)(O)OP(=O)(O)OP(=O)(O)O)[C@@H](O)[C@H]1O` [ATP], the “activation of scFv-P2Y6 (relative potency in words)” value with scFv-P2Y6 is listed as “required much higher concentrations”.

Regarding `O=c1ccn([C@@H]2O[C@H](COP(=O)(O)OP(=O)(O)O)[C@@H](O)[C@H]2O)c(=O)[nH]1` [UDP], the “activation of scFv-P2Y6 (relative potency in words)” value in the experiment on scFv-P2Y6 is “most potent activator”.

For `O=c1ccn([C@@H]2O[C@H](COP(=O)(O)OP(=O)(O)OP(=O)(O)O)[C@@H](O)[C@H]2O)c(=O)[nH]1` [UTP], the “activation of scFv-P2Y6 (relative potency in words)” value in the experiment with scFv-P2Y6 is “required much higher concentrations”.

His Phe Arg Trp [HFRW]: in the experiment with melanocortin receptors, the “activation of melanocortin receptors” value is listed as “fully activate melanocortin receptors, but only at very high concentrations”.

Consider “agouti-related protein (SSRRCVRLHESCLGQQVPCCDPCATCYCRFFNAFCYCRKLGTAMNPCSRT; UniProt O00253 83-132, looked up) [AGRP, known antagonist of the MC4 receptor]”, for which the “effect of increasing amounts of inhibitor on stimulation by HFRW-Fc” value with FcR-MC4R (FcR-MC4R activated with anchored agonist HFRW-Fc) is “dramatically reduce the maximal stimulation levels”. Besides, the “effect of increasing amounts of inhibitor on α-MSH dose response” value with FcR-MC4R (FcR-MC4R activated with natural agonist α-MSH) is on record as “shift the dose response curve of α-MSH progressively to the right”.

Turning to “α-MSH-Fc (from UniProt P01189 138-150) (Fc fusion)”, the amount of compound for half-maximal stimulation of MC4R (CRE-luciferase) in experiment [1] is 100 fold less.

The molecule HFRW-Fc (Fc fusion, part only; not given: Fc and linker, not shown: a dimerising Fc or GST, also: Fc junction, isotype and linker not given here) [HFRW-Fc] came in with a half maximal level of the response (activation of MC4R, CRE-luciferase reporter, transiently transfected HEK293 cells) in experiment [2] below 1 nM.

B1: alpha2: glycoprotein hormone subunit alpha2 as anchor component fused to HFRW via a 13 amino acid spacer (protein)
chain: QEAVIPGCHLHPFNVTVRSDRQGTCQGSHVAQACVGHCESSAFPSRYSVLVASGYRHNITSVSQCCTISGLKKVKVQLQCVGSRREELEIFTARACQCDMCRLSRY
For the molecule B1, in experiment [3], the “binding between anchor and docking glycoprotein hormone subunits, seen as increased MC4R activity” value was “binds to OGH, hCG, and itself”.
